# From article PMC6437863, “Identification and functional characterization of three new terpene synthase genes involved in chemical defense and abiotic stresses in Santalum album” (BMC Plant Biology, 2019)
# B1: SaTPS2 (Santalum album) (protein)
# chain: MDSATLKVLCDNDANVKIEKNPSGNRRSANYEPSIWNYDFLQSLDSCYNIVEEKHLKLAEKLKGEVKSIIKAPMEPLAKLELVDVVQRLGLKHLFETEIKEALFTVYKDGSDAWWLGHLYATSLRFRLLRQAGLFIPQDVFEIFKSATGEFDMKLRDNIEGLLSLYEASFLGWKGENILDEAKAFTTEYLKNAWENIPQKWLAIRVKHALDLPLHWRVPRFEARWFIDAYEREENINPTLLKLAKLDFNMVQSIHQRELGKLARWWVSTGLDKLSFARNNLMQSYMYGTAVTSDPQFKLARETIVKTGSLITIVDDVYDVFGSIDELELYTNFVDRWNCTEVDELPNTIKMIFLAMFNTANEIGFQIQTERGFNGIPALSKAWDDLCKSYIKEAKWYHGKHKPTLQEYLGNAVVSVGFPLLMTTGYVAIADSEGALDKIDRIPDLVRYACLLNRLVNDLATSSDELARGDTLKSIECYMNQTGASEEIAREHIKGLIEDTWKTLNECSFDDSQFGEPFVSFNLNSVRGSHFFYQHGDGYGVTNSWTKDDLMSILINPISVDDES
# notes: full-length ORF, 6His-tagged, pET-28a, E. coli Rosetta 2 (DE3), Ni-NTA purified; no plastid transit peptide; SaTPS1 to 3 span 564 to 604 residues
# B2: SaTPS3 (Santalum album) (protein)
# chain: MESFVFLKSATSNANNSVKVDNRRSANYQSSVWDYNFLRLLGTTYTCCDTMEEEHVRIAEKLKEEVKSLIMGSMGPLANLEFIDAVQRLGLKYQFETEIKEALFAIYKDSNEEWWANDLHATALRFRLLRRNLLFVSQDVFERFKDKKTHDFSGELCEDVKGILSLYEACFLGWDGERVLDKARIFTTTHLNAMNRSTVSDGGSLDKKVKHALELPLHWRAPRVEARWFIDVYEQDPNMNLALLKLAKLDFNMVQSIHQKEVGELSRWWVRTGLDKLSFARNGLMQNYMYCCAVTFEPQFAHVREALTKIGSVLTATDDLYDVYGSLEELELFTSFIDRWDIKEIDELPRDIRLIFLAMYNLSNEIGFDILRDRDFNGVPYVAKMLGDVCSAYLKEARWYHGGYKPRMEEYLDNGLVSIGMLPLLAVAYMLTTDNLSKETVDHVAAAAPLVRYCSLLLRMIDDLGTSSDELRRGDTLKSVECYMNQAGASEEIAREHIEELVRNTWKKMNQCCFGDGQSSFADPFLSFTLNSVRGAHFFYQFGDGFGVTESWTKDTVLSVLFQPIPLDED
# notes: as for B1
# Experiments:
# Assay in all cases: malachite green phosphate release after HCl stop, Michaelis-Menten fit
# Assay type in all cases: biochemical, Santalum album
# Settings in all cases: 10 mM Mg2+, 25 mM HEPES, 30°C, 10 min
# [1] = substrate: CC(C)=CCC/C(C)=C/COP(=O)(O)OP(=O)(O)O
# Source text: (§1) malachite green phosphate release after HCl stop, Michaelis-Menten fit on SaTPS2
# [2] = substrate: CC(C)=CCC/C(C)=C/CC/C(C)=C/CO[P@@](=O)(O)OP(=O)(O)O
# Source text: as §1
# [3] = substrate: CC(C)=CCC/C(C)=C/COP(=O)(O)OP(=O)(O)O; remark: listed apart in the source
# Source text: (§2) malachite green phosphate release after HCl stop, Michaelis-Menten fit on SaTPS3
# [4] = substrate: CC(C)=CCC/C(C)=C/CC/C(C)=C/CO[P@@](=O)(O)OP(=O)(O)O; remark: listed apart in the source
# Source text: as §2
Protein,Km [1] [µM],kcat [1] [s⁻¹],kcat/Km [1] [M⁻¹ s⁻¹],Km [2] [µM],kcat [2] [s⁻¹],kcat/Km [2] [M⁻¹ s⁻¹],Km [3] [µM],kcat [3] [s⁻¹],kcat/Km [3] [M⁻¹ s⁻¹],Km [4] [µM],kcat [4] [s⁻¹],kcat/Km [4] [M⁻¹ s⁻¹]
B1,12.27 ± 1.32,0.189 ± 0.007,15400,12.15 ± 1.32,0.2 ± 0.008,16400,–,–,–,–,–,–
B2,–,–,–,–,–,–,14.38 ± 1.20,0.257 ± 0.008,17900,16.29 ± 1.48,0.171 ± 0.006,10500
